B1: PHOX2A promoter homeodomain binding site probe (dsDNA)
DNA 1: TCAGAGCGAATTGAATTAACTTCTTCACAC
DNA 2: GTGTGAAGAAGTTAATTCAATTCGCTCTGA
B2: PRS1 (dsDNA)
DNA 1: ATGTGTCATTAGTGCCAATTAGAGG
DNA 2: CCTCTAATTGGCACTAATGACACAT
B3: ATTA 2 site probe (dsDNA)
DNA 1: TAGTGTGATTGAATTAAAGGGCA
DNA 2: TGCCCTTTAATTCAATCACACTA
B4: ATTA 3-4 sites probe (dsDNA)
DNA 1: GGTGGTATTAAATTCTAATTAGAGATGCA
DNA 2: TGCATCTCTAATTAGAATTTAATACCACC

These binders were tested against PHOX2B WT (HA-tagged) (human, UniProt Q99453 1-314) (assay: EMSA; self-competition and anti-HA supershift; EMSA as previously described (refs 25, 28) with rabbit reticulocyte lysate proteins; buffer, salt, pH and temperature not given). Details: protein: ivt; tags: N-terminal HA; label: radiolabeled.
Sequence of PHOX2B WT (HA-tagged) (Q99453 whole entry): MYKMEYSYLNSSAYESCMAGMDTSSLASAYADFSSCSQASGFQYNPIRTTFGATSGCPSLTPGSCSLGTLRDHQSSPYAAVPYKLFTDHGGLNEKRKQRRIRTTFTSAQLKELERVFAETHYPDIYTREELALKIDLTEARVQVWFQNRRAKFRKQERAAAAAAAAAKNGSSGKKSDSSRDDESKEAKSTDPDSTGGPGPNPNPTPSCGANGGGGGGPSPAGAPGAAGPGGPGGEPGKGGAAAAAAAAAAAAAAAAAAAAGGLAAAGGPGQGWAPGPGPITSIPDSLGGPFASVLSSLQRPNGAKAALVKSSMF

Binding result, binds:
B1, B2, B3, B4

Reference: article PMC4933246, “Alanine Expansions Associated with Congenital Central Hypoventilation Syndrome Impair PHOX2B Homeodomain-mediated Dimerization and Nuclear Import*”
